The source of these data is patent publication US20220281948A1 (published 2022).

Experiment in all cases: multimer staining
Test [1] has as its target T1, HSD17B12 peptide on HLA-DPA1*01:03 / HLA-DPB1*04:01 (human).
T1 peptide: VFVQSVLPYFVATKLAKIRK

The target in test [2] is T2, MAGE-A2 peptide on HLA-DPA1*01:03 / HLA-DPB1*04:01 (human).
T2 peptide: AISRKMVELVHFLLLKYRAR

In test [3] the target is T3, MUC5AC peptide on HLA-DPA1*01:03 / HLA-DPB1*04:01 (human).
T3 peptide: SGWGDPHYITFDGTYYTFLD

Test [4] has as its target T4, CCND1 peptide on HLA-DPA1*01:03 / HLA-DPB1*04:01 (human).
T4 peptide: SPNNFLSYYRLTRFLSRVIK

For test [5], the target named is T5, LGSN peptide on HLA-DPA1*01:03 / HLA-DPB1*04:01 (human).
T5 peptide: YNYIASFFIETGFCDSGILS

B1: 05-HSD17B12225-244 (TCR)
alpha TRAV22*01 TRAJ18*01 CDR3: CAVAPYDRGSTLGRLYF
beta TRBV19*01 TRBJ2-5*01 CDR3: CASSTGQGLETQYF
For the molecule B1, in test [1], the binding result was “recognises”.

B2: 06-MAGE-A2108-127 (TCR)
alpha TRAV19*01 TRAJ40*01 CDR3: CALSVGTYKYIF
beta TRBV7-9*01 TRBJ2-5*01 CDR3: CASSPGTGGRETQYF
As to B2, in test [2], the binding result was “recognises”.

B3: 03-MAGE-A2108-127 (TCR)
alpha TRAV36/DV7*04 TRAJ40*01 CDR3: CAVEVNSGTYKYIF
beta TRBV2*01 TRBJ1-1*01 CDR3: CASRRDLAAFF
As for B3, the binding result in test [2] was “recognises”.

B4: 05-MUC5AC4922-4941 (TCR)
Valpha: QTVTQSQPEMSVQEAETVTLSCTYDTSESNYYLFWYKQPPSRQMILVIRQEAYKQQNATENRFSVNFQKAAKSFSLKISDSQLGDTAMYFCAFMKRAETSGSRLTFGEGTQLTVNP
beta TRBV6-2*01 TRBJ2-5*01 CDR3: CASSYWPTRETQYF
In the case of B4, the binding result in test [3] is recorded as “recognises”.

B5: 03-CCND1219-238 (TCR)
alpha TRAV2*01 TRAJ21*01 CDR3: CAVCTLYNFNKFYF
beta TRBV6-5*01 TRBJ2-1*01 CDR3: CASLTDNNEQFF
Turning to B5, the binding result in test [4] is on record as “recognises”.

B6: 05-LGSN296-315 (TCR)
alpha TRAV9-2*03 TRAJ32*01 CDR3: CALSDLSYGGATNKLIF
beta TRBV27*01 TRBJ1-5*01 CDR3: CASSKGQGLGNQPQHF
B6: the binding result in test [5] was “recognises”.
